Assay results taken from PMC12117093.

Target: 5-IAF-labeled p53-TAD A63C mutant (UniProt P04637)
Assay: fluorescence polarisation

- Kd: 42 µM
Substance: FOXO4 Forkhead DNA-binding domain (FOXO4-DBD, residues 86-211) (from UniProt P98177 86-211) (domain or fragment)
